Results published in article PMC8837617.

Molecular target: MAPK ERK2 (human), P28482
Assay: FP
Conditions: modification not given

Sequence of MAPK ERK2 (human), P28482 (P28482 whole entry): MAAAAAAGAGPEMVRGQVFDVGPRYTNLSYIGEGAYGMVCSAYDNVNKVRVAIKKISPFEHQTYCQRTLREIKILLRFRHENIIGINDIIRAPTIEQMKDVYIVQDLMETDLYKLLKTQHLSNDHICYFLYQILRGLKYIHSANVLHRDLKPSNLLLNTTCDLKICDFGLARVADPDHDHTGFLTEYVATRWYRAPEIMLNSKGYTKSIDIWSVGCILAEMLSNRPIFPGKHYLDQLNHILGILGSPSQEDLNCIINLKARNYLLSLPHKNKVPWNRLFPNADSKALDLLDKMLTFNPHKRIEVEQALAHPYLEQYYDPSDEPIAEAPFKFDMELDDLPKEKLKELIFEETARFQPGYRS

Row | Ki | Binder
1 | 431 µM | QGKRKALKLNFANP [MKK4]
2 | 65 µM | SKGKKRNPGLKIPK [MKK6]
